# Source: article PMC2169463
# B1: hRAD51, Q06609 1-339 (natural protein)
# chain: MAMQMQLEANADTSVEEESFGPQPISRLEQCGINANDVKKLEEAGFHTVEAVAYAPKKELINIKGISEAKADKILAEAAKLVPMGFTTATEFHQRRSEIIQITTGSKELDKLLQGGIETGSITEMFGEFRTGKTQICHTLAVTCQLPIDRGGGEGKAMYIDTEGTFRPERLLAVAERYGLSGSDVLDNVAYARAFNTDHQTQLLYQASAMMVESRYALLIVDSATALYRTDYSGRGELSARQMHLARFLRMLLRLADEFGVAVVITNQVVAQVDGAAMFAADPKKPIGGNIIAHASTTRLYLRKGRGETRICKIYDSPCLPEAEAMFAINADGVGDAKD
# Biological target: GST-BLM fusion protein (human), P54132
# Experiment: pull-down
# Conditions: remark: other sources report otherwise
# Sequence of GST-BLM fusion protein (human), P54132 (P54132 whole entry, the tested form may be a part): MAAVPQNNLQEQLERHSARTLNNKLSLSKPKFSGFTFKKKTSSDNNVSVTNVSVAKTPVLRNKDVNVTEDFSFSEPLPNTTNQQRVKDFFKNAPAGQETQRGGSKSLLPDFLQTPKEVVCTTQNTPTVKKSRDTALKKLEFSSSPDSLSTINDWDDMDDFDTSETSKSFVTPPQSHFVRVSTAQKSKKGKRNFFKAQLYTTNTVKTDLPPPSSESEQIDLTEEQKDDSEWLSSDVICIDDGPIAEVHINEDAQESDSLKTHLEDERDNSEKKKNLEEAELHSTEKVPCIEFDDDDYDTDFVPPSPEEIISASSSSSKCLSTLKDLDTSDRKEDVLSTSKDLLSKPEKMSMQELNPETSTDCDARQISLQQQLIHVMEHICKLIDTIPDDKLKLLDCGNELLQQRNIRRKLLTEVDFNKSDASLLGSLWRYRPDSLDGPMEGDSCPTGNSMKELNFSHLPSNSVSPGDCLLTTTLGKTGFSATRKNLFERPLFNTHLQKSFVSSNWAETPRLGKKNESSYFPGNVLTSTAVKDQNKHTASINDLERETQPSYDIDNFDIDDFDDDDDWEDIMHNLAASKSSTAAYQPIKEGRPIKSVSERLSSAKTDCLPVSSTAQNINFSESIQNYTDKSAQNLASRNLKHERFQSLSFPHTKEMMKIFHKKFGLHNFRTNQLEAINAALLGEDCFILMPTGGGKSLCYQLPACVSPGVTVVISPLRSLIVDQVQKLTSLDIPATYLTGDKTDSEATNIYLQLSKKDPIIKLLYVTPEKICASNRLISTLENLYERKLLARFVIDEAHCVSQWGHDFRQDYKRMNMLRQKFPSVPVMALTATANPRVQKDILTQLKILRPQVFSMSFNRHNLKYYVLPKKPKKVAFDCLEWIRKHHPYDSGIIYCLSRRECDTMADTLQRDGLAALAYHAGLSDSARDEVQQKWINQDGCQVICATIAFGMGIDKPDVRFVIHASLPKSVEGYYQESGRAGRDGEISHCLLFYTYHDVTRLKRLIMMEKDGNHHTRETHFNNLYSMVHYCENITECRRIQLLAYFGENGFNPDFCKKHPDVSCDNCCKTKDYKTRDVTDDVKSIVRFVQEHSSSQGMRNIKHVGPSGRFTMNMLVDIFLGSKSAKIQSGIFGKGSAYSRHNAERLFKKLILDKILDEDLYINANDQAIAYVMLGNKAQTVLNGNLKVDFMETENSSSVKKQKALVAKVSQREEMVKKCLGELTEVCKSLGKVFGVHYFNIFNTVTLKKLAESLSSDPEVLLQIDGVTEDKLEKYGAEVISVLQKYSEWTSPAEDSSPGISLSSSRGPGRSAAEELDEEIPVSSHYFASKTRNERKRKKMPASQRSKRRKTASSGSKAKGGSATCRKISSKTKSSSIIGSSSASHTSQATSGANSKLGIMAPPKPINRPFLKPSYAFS
binder,measurement,value
B1,percent of the hRAD51 in the lysate retained,30 to 40%
